Measurements as given in IntAct's records for PubMed 21399639.

Biological target: T1, ikkb_human IKBKB (UniProt O14920)
T1 sequence: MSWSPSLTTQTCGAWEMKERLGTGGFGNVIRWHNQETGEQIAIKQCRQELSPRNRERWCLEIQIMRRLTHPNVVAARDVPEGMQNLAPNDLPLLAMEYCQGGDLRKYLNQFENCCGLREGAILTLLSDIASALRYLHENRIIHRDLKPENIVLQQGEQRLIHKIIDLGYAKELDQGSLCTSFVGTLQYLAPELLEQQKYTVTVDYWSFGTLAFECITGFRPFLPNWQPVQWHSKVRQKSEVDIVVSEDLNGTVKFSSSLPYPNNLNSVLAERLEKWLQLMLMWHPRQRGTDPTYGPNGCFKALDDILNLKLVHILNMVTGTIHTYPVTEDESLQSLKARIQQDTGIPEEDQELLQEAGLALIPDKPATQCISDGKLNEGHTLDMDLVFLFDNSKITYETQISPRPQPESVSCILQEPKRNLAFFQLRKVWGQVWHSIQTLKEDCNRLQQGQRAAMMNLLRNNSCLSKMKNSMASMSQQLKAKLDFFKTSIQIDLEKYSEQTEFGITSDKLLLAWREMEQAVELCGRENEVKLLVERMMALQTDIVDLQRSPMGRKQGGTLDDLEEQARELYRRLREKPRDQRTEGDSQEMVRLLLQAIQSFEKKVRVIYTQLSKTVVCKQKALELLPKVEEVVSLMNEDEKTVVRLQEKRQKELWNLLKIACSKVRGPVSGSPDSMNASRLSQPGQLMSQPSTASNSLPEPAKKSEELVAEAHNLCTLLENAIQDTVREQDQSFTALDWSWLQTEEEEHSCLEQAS

- effect of a mutation on the interaction: disrupting interaction
Substance: Small ribosomal subunit protein uS3 (Homo sapiens) (from UniProt P23396) S209A
